Starred links: 1 amine or outer side, 2 acyl side, 3 side chain; linkers in the order of their positions; H or OH if unused. Positions of bridges follow the written chain, without caps; N, C: chain ends. Non-standard residues stand in square brackets, D forms with d. Groups on a side chain read outwards from the residue. Primed or numbered codes have the meaning given here. No end group written: not given here. *: point of attachment. PEG8′ = PEG8 unit (23-azido-3,6,9,12,15,18,21-heptaoxatricosyl, i.e. an eight-unit PEG spacer) linking the triazole to vitamin E succinate; Pra′ = propargylglycine (built in as LPH), clicked to a 1-substituted triazol-4-yl-alanine, O=C([C@H](Cc1cn([*:3])nn1)N[*:1])[*:2]; X1 = (S)‑3‑carboxy‑3‑(15-carboxypentadecanoylamino)propyl, O=C(O)CCCCCCCCCCCCCCC(=O)N[C@@H](CC*)C(=O)O; Pra″ = its azide, alkyne or alkene has reacted where a group follows in round brackets; X2 = (S)‑3‑carboxy‑3‑palmitamidopropyl, CCCCCCCCCCCCCCCC(=O)N[C@@H](CC*)C(=O)O; Phe(4-OMe)″ = p-methoxyphenylalanine, COc1ccc(C[C@H](N[*:1])C(=O)[*:2])cc1; Pra(3) = propargylglycine, clicked to an azide to give a triazolyl-alanine; triazole = 1,2,3-triazole formed by click of the Pra alkyne with the azide; Trp(1-CH2CO) = O=C([C@H](Cc1cn(CC(=O)[*:3])c2ccccc12)N[*:1])[*:2]; Tyr(Me) = O-methyl-tyrosine, COc1ccc(C[C@H](N[*:1])C(=O)[*:2])cc1; C18 diacid = O=C(O)CCCCCCCCCCCCCCCCC(=O)*; Phe(4-F) = N[C@@H](Cc1ccc(F)cc1)C(=O)O; γGlu = O=C(O)[C@H](CCC(=O)[*:2])N[*:1]; Hyp = O=C(O)[C@@H]1C[C@@H](O)CN1; NMeF = CN[C@@H](Cc1ccccc1)C(=O)O; F3Phe = trifluoro-phenylalanine; dHyp = O=C(O)[C@H]1C[C@H](O)CN1; NMeNle = CCCC[C@H](NC)C(=O)O; Suc = O=C(CCC(=O)[*:2])[*:1]; triazole″ = not defined here; Pip = O=C(O)[C@@H]1CCCCN1; NMeA = CN[C@@H](C)C(=O)O; Pra = C#CC[C@H](N)C(=O)O; Dab = NCC[C@H](N)C(=O)O; Dap = NC[C@H](N)C(=O)O
Molecular target: T1, Recombinant Human PD-L1-TVMV-His (human, UniProt Q9NZQ7 19-239)
T1 construct: expressed in HEK293T cells; also called PD-L1-His; hPD-L1(19-239)-TVMV-His
T1 sequence (Q9NZQ7 other isoform, or with tags, fused parts or gaps limits assumed): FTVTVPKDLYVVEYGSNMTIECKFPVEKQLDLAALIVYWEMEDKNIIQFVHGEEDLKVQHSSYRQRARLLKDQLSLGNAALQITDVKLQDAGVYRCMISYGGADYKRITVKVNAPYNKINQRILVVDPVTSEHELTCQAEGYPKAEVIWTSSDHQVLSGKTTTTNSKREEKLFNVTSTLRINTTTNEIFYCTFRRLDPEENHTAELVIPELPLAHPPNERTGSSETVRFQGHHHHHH
Experiment: HTRF vs PD-1-Ig; B = IC50 0.01-0.099 µM
Method: Homogenous Time-Resolved Fluorescence (HTRF) Assays of Binding of Soluble PD-1 to Soluble PD-L1. Soluble PD-1 and soluble PD-L1 refers to proteins with carboxyl-end truncations that remove the transmembrane-spanning regions and are fused to heterologous sequences, specifically the Fc portion of the human immunoglobuling G sequence (Ig) or the hexahistidine epitope tag (His). All binding studies were performed in an HTRF assay buffer consisting of dPBS supplemented with 0.1% (w/v) bovine serum albumin and 0.05% (v/v) Tween-20. For the PD-1-Ig/PD-L1-His binding assay, inhibitors were pre-incubated with PD-L1-His (10 nM final) for 15 m in 4 μl of assay buffer, followed by addition of PD-1-Ig (20 nM final) in 1 μl of assay buffer and further incubation for 15 m. PD-L1 fusion proteins from either human, cynomologous macaques, mouse, or other species were used. HTRF detection was achieved using europium crypate-labeled anti-Ig monoclonal antibody (1 nM final) and allophycocyanin (APC) labeled anti-His monoclonal antibody (20 nM final). Antibodies were diluted in HTRF detection buffer and 5 μl was dispensed on top of binding reaction. The reaction was allowed to equilibrate for 30 minutes and signal (665 nm/620 nm ratio) was obtained using an EnVision fluorometer. Additional binding assays were established between PD-I-Ig/PD-L2-His (20 and 5 nM, respectively), CD80-His/PD-L1-Ig (100 and 10 nM, respectively) and CD80-His/CTLA4-Ig (10 and 5 nM, respectively). Binding/competition studies between biotinylated Compound No. 71 and human PD-L1-His were performed as follows. Macrocyclic peptide inhibitors were pre-incubated with PD-L1-His (10 nM final) for 60 minutes in 4 μl of assay buffer followed by addition of biotinylated Compound No. 71 (0.5 nM final) in 1 μl of assay buffer. Binding was allowed to equilibrate for 30 minutes followed by addition of europium crypated labeled Streptavidin (2.5 pM final) and APC-labeled anti-His (20 nM final) in 5 μl of HTRF buffer. The reaction was allowed to equilibrate for 30 m and signal (665 nm/620 nm ratio) was obtained using an EnVision fluorometer.

Row | IC50 [nM] | Binder
1 | 10 to 99 | {CH2CO}-Y[NMeA]NP[Dap]L[Hyp]WS[Trp(1-CH2CO)][NMeNle][NMeNle]ECG[Pra] (thioether N-14; not fully specified (C-terminus); printed as ClAc-Tyr-mAla-Asn-Pro-Dap-Leu-Hyp-Trp-Ser-Trp(1-carboxymethyl)-mNle-mNle-E-Cys-Gly-[(S)-propargylglycine], cyclised ClAc-Cys, also called Intermediate 1400I) [INT-1400I]
2 | 10 to 99 | {CH2CO}-Y[NMeA]NP[Dap]L[Hyp]W[Dab][Trp(1-CH2CO)][NMeNle][NMeNle]LCG[Pra]-OH (thioether N-14; SMILES C#CC[C@H](NC(=O)CNC(=O)[C@@H]1CSCC(=O)N[C@@H](Cc2ccc(O)cc2)C(=O)N(C)[C@@H](C)C(=O)N[C@@H](CC(N)=O)C(=O)N2CCC[C@H]2C(=O)N[C@@H](CN)C(=O)N[C@@H](CC(C)C)C(=O)N2C[C@H](O)C[C@H]2C(=O)N[C@@H](Cc2c[nH]c3ccccc23)C(=O)N[C@@H](CCN)C(=O)N[C@@H](Cc2cn(CC(=O)O)c3ccccc23)C(=O)N(C)[C@@H](CCCC)C(=O)N(C)[C@@H](CCCC)C(=O)N[C@@H](CC(C)C)C(=O)N1)C(=O)O) [INT-1300V]
3 | 10 to 99 | {CH2CO}-[F3Phe][NMeF][NMeNle][dHyp]DV[NMeF]D[dP]WYLCG[Pra] (thioether N-13; not fully specified (C-terminus); printed as ClAc-F3Phe-mPhe-mNle-dHyp-Asp-Val-mPhe-Asp-dPro-Trp-Tyr-Leu-Cys-Gly-[(S)-propargylglycine], also called Intermediate 1400L) [INT-1400L]
4 | 10 to 99 | {CH2CO}-Y[NMeA]NP[Dap]L[Hyp]W[Dab][Trp(1-CH2CO)][NMeNle][NMeNle]LCG[Pra] (thioether N-14; not fully specified; printed as ClAc-Tyr-[N-Me]Ala-Asn-Pro-Dap-Leu-Hyp-Trp-Dab-Trp(1-carboxymethyl)-[N-Me]Nle-[N-Me]Nle-Leu-Cys-Gly-[(S)-propargylglycine]) [INT-1300W]
5 | 10 to 99 | {CH2CO}-Y[NMeA]NP[Dap]L[Hyp]W[Dab][Trp(1-CH2CO)][NMeNle][NMeNle]LCGG[Pra]-OH (thioether N-14; SMILES C#CC[C@H](NC(=O)CNC(=O)CNC(=O)[C@@H]1CSCC(=O)N[C@@H](Cc2ccc(O)cc2)C(=O)N(C)[C@@H](C)C(=O)N[C@@H](CC(N)=O)C(=O)N2CCC[C@H]2C(=O)N[C@@H](CN)C(=O)N[C@@H](CC(C)C)C(=O)N2C[C@H](O)C[C@H]2C(=O)N[C@@H](Cc2c[nH]c3ccccc23)C(=O)N[C@@H](CCN)C(=O)N[C@@H](Cc2cn(CC(=O)O)c3ccccc23)C(=O)N(C)[C@@H](CCCC)C(=O)N(C)[C@@H](CCCC)C(=O)N[C@@H](CC(C)C)C(=O)N1)C(=O)O, also called Intermediate 130AA) [INT-130AA]
6 | 10 to 99 | {CH2CO}-Y[NMeA]NP[Dap]L[Hyp]W[Dab][Trp(1-CH2CO)][NMeNle][NMeNle]ECG[Pra]-OH (thioether N-14; SMILES C#CC[C@H](NC(=O)CNC(=O)[C@@H]1CSCC(=O)N[C@@H](Cc2ccc(O)cc2)C(=O)N(C)[C@@H](C)C(=O)N[C@@H](CC(N)=O)C(=O)N2CCC[C@H]2C(=O)N[C@@H](CN)C(=O)N[C@@H](CC(C)C)C(=O)N2C[C@H](O)C[C@H]2C(=O)N[C@@H](Cc2c[nH]c3ccccc23)C(=O)N[C@@H](CCN)C(=O)N[C@@H](Cc2cn(CC(=O)O)c3ccccc23)C(=O)N(C)[C@@H](CCCC)C(=O)N(C)[C@@H](CCCC)C(=O)N[C@@H](CCC(=O)O)C(=O)N1)C(=O)O) [INT-130AD]
7 | 10 to 99 | {CH2CO}-Y[NMeA]DP[Dap]L[Hyp]W[Dab][Trp(1-CH2CO)][NMeNle][NMeNle]ECG[Pra]-OH (thioether N-14; SMILES C#CC[C@H](NC(=O)CNC(=O)[C@@H]1CSCC(=O)N[C@@H](Cc2ccc(O)cc2)C(=O)N(C)[C@@H](C)C(=O)N[C@@H](CC(=O)O)C(=O)N2CCC[C@H]2C(=O)N[C@@H](CN)C(=O)N[C@@H](CC(C)C)C(=O)N2C[C@H](O)C[C@H]2C(=O)N[C@@H](Cc2c[nH]c3ccccc23)C(=O)N[C@@H](CCN)C(=O)N[C@@H](Cc2cn(CC(=O)O)c3ccccc23)C(=O)N(C)[C@@H](CCCC)C(=O)N(C)[C@@H](CCCC)C(=O)N[C@@H](CCC(=O)O)C(=O)N1)C(=O)O) [INT-130AE]

Further lines, the binder ahead of its results:

Row | Binder | IC50 [nM]
8 | {CH2CO}-Y[NMeA]DPHK[Hyp]WKW[NMeNle][NMeNle]ECG[Pra(3)]([triazole″-X2])D (thioether N-14; reading uncertain) [Example 14061] | 10 to 99
9 | {CH2CO}-Y[NMeA]DPHK[Hyp]WKW[NMeNle][NMeNle]ECG[Pra′]([triazole-X1])D (thioether N-14) [Example 14065] | 10 to 99
10 | {CH2CO}-Y[NMeA]DPHK[Hyp]WK[Trp(1-CH2CO)][NMeNle][NMeNle]ECG[Pra′]([triazole-X1])D (thioether N-14) [Example 14071] | 10 to 99
11 | YADPHKPWKWXXECGXD (as m110 (INT 1400E); Pra triazole-linked to vitamin E succinate 5-azidopentylamide) [Example 14086] | 10 to 99
12 | YADPHKPWKWXXECGX (as m115 (INT 1400J); Pra triazole-linked to vitamin E succinate 5-azidopentylamide) [Example 14082] | 10 to 99
13 | {CH2CO}-Y[NMeA]NP[Dap]L[Hyp]WS[Trp(1-CH2CO)][NMeNle][NMeNle]LCG[Pra] (thioether N-14, also called Intermediate 1300X) [INT-1300X] | 10 to 99
14 | {CH2CO}-Y[NMeA]NP[Dap]L[Hyp]WS[Trp(1-CH2CO)][NMeNle][NMeNle]ECG[Pra′]([triazole-X1]) (thioether N-14) [Example 14070] | 10 to 99
15 | {CH2CO}-Y[Pip]NP[Dap]L[Hyp]W[Dab][Trp(1-CH2CO)][NMeNle][NMeNle]LCG[Dab]([γGlu-C18 diacid]) (thioether N-14 (inferred)) [Example 13149] | 10 to 99
16 | {CH2CO}-[Phe(4-OMe)″][Pip]NPHL[Hyp]W[Dab][Trp(1-CH2CO)][NMeNle][NMeNle]LCG[Dab]([γGlu-C18 diacid]) (thioether N-14 (inferred)) [Example 13151] | 10 to 99
17 | YADPHKPWKWXXECGX (as m102 (INT 1300Y); Pra triazole-linked to vitamin E succinate 5-azidopentylamide) [Example 14085] | 10 to 99
18 | {CH2CO}-[Phe(4-F)][Pip]DP[Dap]L[Hyp]W[Dab][Trp(1-CH2CO)][NMeNle][NMeNle]LCG[Pra″]([triazole-(S)‑18‑((3-azido-1-carboxypropyl)amino)‑18‑oxooctadecanoic acid]) (thioether N-14; also: residue 1 written Tyr(4-F)) [Example 14122] | 10 to 99
19 | {CH2CO}-Y[NMeA]DPHK[Hyp]WKW[NMeNle][NMeNle]ECG[Pra″]([triazole″-PEG8′-Suc-vitamin E])G (thioether N-14; reading uncertain) [Example 14052] | 10 to 99
20 | {CH2CO}-F[Pip]DP[Dap]L[Hyp]W[Dab]W[NMeNle][NMeNle]LCGD (thioether N-14; not fully specified (residues 1, 10, 16, C-terminus); also: residue 1 written Tyr(4-F)) [Example 14124] | 10 to 99
21 | {CH2CO}-[Tyr(Me)][Pip]DP[Dap]Q[Hyp]W[Dab][Trp(1-CH2CO)][NMeNle][NMeNle]ECG[Pra″]([triazole-(S)‑18‑((3-azido-1-carboxypropyl)amino)‑18‑oxooctadecanoic acid]) (thioether N-14) [Example 14121] | 10 to 99
